Data from US20200109196A1 (MOGAM INSTITUTE FOR BIOMEDICAL RESEARCH, published 2020).

Experiments:
[1] = target: T1, recombinant human CEACAM-3/CD66d protein (Sino Biological; Cat. No. 11933-H08H) (human, UniProt P40198 35-155); assay: ELISA on coated antigen (0.25 µg/ml), HRP anti-human IgG Fc, OD450
T1 construct: Bought protein; also called HCCM3
T1 sequence (looked up): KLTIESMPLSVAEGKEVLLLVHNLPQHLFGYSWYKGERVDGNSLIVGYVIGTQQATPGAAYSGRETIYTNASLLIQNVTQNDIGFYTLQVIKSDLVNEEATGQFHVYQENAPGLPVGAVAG
Source text: All of the recombinant human CEACAM-1/CD66a protein (R&D systems; Cat No. 2244-CM, HCCM1), recombinant human CEACAM-5/CD66e protein (R&D systems; Cat. No. 4128-CM, HCCM5), recombinant human CEACAM-6/CD66c protein (R&D systems; Cat. No. 3934-CM, HCCM6), recombinant human CEACAM-3/CD66d protein (Sino Biological; Cat. No. 11933-H08H, HCCM3), human B7-H5/Gi24/VISTA protein (Sino Biological; Cat. No. 13482-H08H, HVISTA), recombinant human CEACAM-1/CD66a protein Bulk (R&D systems; Cat. No. 2244-CM, HCCM1 (bulk)), recombinant human CEACAM1-N domain-Kappa protein (Mogam, in-house production, HCCM1-N domain-kappa), and BSA protein (2.5 μg each) were dissolved in 10 ml of PBS, respectively, and dispensed into a 96-well plate at 100 μl/well, which was incubated at 4° C. overnight. Thereafter, each well was treated with 300 μl of 1% (v/v) bovine serum albumin, and incubated at 37° C. for 1 hour.
The diluted antibodies were dispensed into each well coated with each protein at 100 μl/well, and incubated at 37° C. for 1 hour. Then, each well was washed 3 times with a washing buffer prepared by diluting 10 μl of Tween 20 (Sigma-Aldrich; Cat. No. P9146) in 990 μl of PBS. Thereafter, 2 μl of HRP-conjugated human anti-IgG-Fc antibody (anti-human IgG Fc, Sigma Cat. No. A0170) was diluted in 10 ml of PBS, added to the wells at 100 μl/well, and incubated for 1 hour.
After completion of the reaction, the wells were washed three times with the washing buffer, and 100 μl of TMB solution was added to each well to induce color development. Then, 100 μl of 2 M H₂SO₄ was added to each well to stop the reaction, and the absorbance was measured at a wavelength of 450 nm.

[2] = target: T2, human CEACAM1 expressed on the cell surface (CEACAM1-Jurkat T cells); HEK293 cells transfected with human … (human, UniProt P13688 35-526); assay: flow cytometry on CEACAM1-Jurkat T cells, antibody at 0.2 µg/ml
T2 construct: whole, on cells; also called CCM1
T2 sequence (looked up): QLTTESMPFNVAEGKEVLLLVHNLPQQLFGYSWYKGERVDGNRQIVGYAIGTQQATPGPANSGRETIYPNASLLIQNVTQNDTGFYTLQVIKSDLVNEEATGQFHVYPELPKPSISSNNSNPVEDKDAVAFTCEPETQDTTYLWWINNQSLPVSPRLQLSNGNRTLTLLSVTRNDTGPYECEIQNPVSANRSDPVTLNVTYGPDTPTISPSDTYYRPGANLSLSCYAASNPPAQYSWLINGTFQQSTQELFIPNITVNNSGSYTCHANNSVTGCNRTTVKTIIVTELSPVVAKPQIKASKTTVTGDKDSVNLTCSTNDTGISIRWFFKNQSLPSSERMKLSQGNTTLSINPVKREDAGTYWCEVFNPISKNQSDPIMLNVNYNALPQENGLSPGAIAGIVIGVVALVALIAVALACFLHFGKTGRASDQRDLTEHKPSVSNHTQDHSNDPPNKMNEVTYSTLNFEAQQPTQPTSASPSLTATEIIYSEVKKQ
Procedure: (§1) The CEACAM1-Jurkat T cells prepared above were treated with Fc block solution and incubated for 15 minutes. […] Herein, it is noted that the cell numbers were adjusted to 1×10⁵. The cells incubated with the antibodies were repeatedly subjected to the washing procedure of resuspending the cells in a FACS buffer and centrifuging the solution at 1,500 rpm.
(§2) PE-conjugated goat anti-human F(ab)₂; (Sigma; Cat. No. P8047)) was diluted in the FACS buffer at a volume ratio of 1:200, and then added to the cells at 100 μl/well. Cells were resuspended well and incubated at 4° C. for 30 minutes in a dark condition.
(§3) The cells incubated with the fixation buffer were repeatedly subjected to the washing procedure of resuspending the cells in a FACS buffer, centrifuging the solution at 1,500 rpm, and discarding the supernatant. The washed cells were resuspended in 200 μl of a FACS buffer, and the mean fluorescence intensities (MFIs) of the PE-labeled cells were monitored by a FACS LSR-Fortessa. All FACS analyses were conducted using the FlowJo software.

[3] = target: T2, human CEACAM1 expressed on the cell …; assay: flow cytometry on CEACAM1-Jurkat T cells; reference: the other clones (MFI 8,000)
Procedure: as §1, §2, §3

Binder | binding result [1] | percent of maximal binding level [2] [%] | other results
C18 (antibody, human IgG4 S228P, lambda, V domains shown) VH: EVQLLESGGGLVQPGGSLRLSCAASGFTFSNYDMSWVRQAPGKGLEWVSGISHSSGSKYYADSVKGRFTISRDNSKNTLYLQMNSLRAEDTAVYYCARDPLPCLIPKCSYYYAMDVWGQGTLVTVSS VL: QSVLTQPPSAPGTPGQRVTISCSGSSSNIGSNAVTWYQQLPGTAPKLLIYADSHRPSGVPDRFSGSKSGTSASLAISGLRSEDEADYYCGSWDDSLNAYVFGGGTKLTVLG | no binding (tested: 3 µg/ml (single concentration)) | – | –
C17 (antibody, human IgG4 S228P, lambda, V domains shown) VH: EVQLLESGGGLVQPGGSLRLSCAASGFTFSDYSMSWVRQAPGKGLEWVSVIYPDDGNTYYADSVKGRFTISRDNSKNTLYLQMNSLRAEDTAVYYCARGSIWWLSLIPSSYNAMDVWGQGTLVAVSS VL: QSVLTQPPSASGTPGQRVTISCSGSSSNIGNNAVNWYQQLPGTAPKLLIYANSHRPSGVPDRFSGSKSGTSASLAISGLRSEDEADYYCGAWDASLNGYVFGGGTKLTVLG | no binding (tested: 3 µg/ml (single concentration)) | – | –
C15 (antibody, human IgG4 S228P, lambda, V domains shown) VH: EVQLLESGGGLVQPGGSLRLSCAASGFTFSSYSMSWVRQAPGKGLEWVSSISPNGGNKYYADSVKGRFTISRDNSKNTLYLQMNSLGAEDTAVYYCAKDPYNIYQPLFDYWGQGTLVTVSS VL: QSVLTQPLSASGTPGQRVTISCSGSSSNIGNNYVNWYQQLPGTAPKLLIYANSNRPSGVPDRFSGSKSGTSASLAISGLRSEEEADYYCGTWDASLSAYVFGGGTKLTVLG | no binding (tested: 3 µg/ml (single concentration)) | – | –
4R26 (antibody, human IgG4 S228P, lambda, V domains shown, also called C25-derived clone 4R26) VH: EVQLLESGGGLVQPGGSLRLSCAASGFTFSNYAMSWVRQAPGKGLEWVSVISHGGGSIYYADSVKGRLTISRDNSKNTLYLQMNSLRAEDTAVYYCARDPTKGYAPTFDYWGQGTLVTVSS VL: QSVLTQPPSASGTPGQRVTISCSGSSSNIGNNYVSWYQQLPGTAPKLLIYADSKRLSGVPDRFSGSKSGTSASLAISGLRSEDEADYYCGAWDGRLNGYVFGGGTKLTVLG | – | 80 | –
4R9 (antibody, human IgG4 S228P, lambda, V domains shown, also called C25-derived clone 4R9) VH: EVQLLESGGGLVQPGGSLRLSCAASGFTFSNYAMSWVRQAPGKGLEWVSVISHGGGSIYYADSVKGRLTISRDNSKNTLYLQMNSLRAEDTAVYYCARDPTKGYAPTFDYWGQGTLVTVSS VL: QSVLTQPPSASGTPGQRVTISCSGSSSNIGNNYVSWYQQLPGTAPKLLIYADSRRPSGVPDRFSGSKSGTSASLAISGLRSEDEADYYCGAWDLSLNGYVFGGGTKLTVLG | – | 80 | –
4R9_H2-2 (antibody, human IgG4 S228P, lambda, V domains shown, also called C25-derived clone 4R9_H2-2) VH: EVQLLESGGGLVQPGGSLRLSCAASGFTFSNYAMSWVRQAPGKGLEWVSVISHGGGSIYYADSVKGRLTISRDNSKNTLYLQMNSLRAEDTAVYYCARDPTKGYAPLFDYWGQGTLVTVSS VL: QSVLTQPPSASGTPGQRVTISCSGSSSNIGNNYVSWYQQLPGTAPKLLIYADSRRPSGVPDRFSGSKSGTSASLAISGLRSEDEADYYCGAWDLSLNGYVFGGGTKLTVLG | – | 80 | –
4R9_H4-n20 (antibody, human IgG4 S228P, lambda, V domains shown, also called C25-derived clone 4R9_H4-n20) VH: EVQLLESGGGLVQPGGSLRLSCAASGFNFSNYAMSWVRQAPGKGLEWVSVISHGGGSIYYADSVKGRLTISRDNSKNTLYLQMNSLRAEDTAVYYCARDPTKGYAPTFDYWGQGTLVTVSS VL: QSVLTQPPSASGTPGQRVTISCSGSSSNIGNNYVSWYQQLPGTAPKLLIYADSRRPSGVPDRFSGSKSGTSASLAISGLRSEDEADYYCGAWDLSLNGYVFGGGTKLTVLG | – | – | fold MFI against the other clones [3]: 1.5 times
